The results in this text go back to the supplement of paper PMC10567573.

Sequences and labels used below:
B1: DVL3 (parent)
chain: FCADNPSELPPPMERTGGIGDSRP
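Note: lentivirally expressed fusions sorted by FACS into six bins by GFP to DsRed ratio, PSI derived from sequencing read proportions per bin multiplied by bin number.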

Variants of B1 are the subject of this data set. Put plainly: protein stability index of a GFP-peptide fusion (GPS, HEK-293T) (PSI 1-6); higher = more stable. The settings on record: c terminus: a fixed tail appended.
In the case of FCADNPSELPPPMERTGGIGDSIP [R23I], the protein stability index stood at 4.18.

As for FCADNPSELPPPMERTGGIGDSLP [R23L], the protein stability index was 3.74.

Take FCADNPSELPPPMERTGGIGDSMP [R23M]: the protein stability index came to 4.12.

On to FCADNPSELPPPMERTGGIGDSEP [R23E], for which the protein stability index was 4.95.

Consider FCADNPSELPPPMERTGGIGDSFP [R23F], for which the protein stability index came to 3.55.

With FCADNPSELPPPMERTGGIGDSAP [R23A], the protein stability index is 4.89.

As to FCADNPSELPPPMERTGGIGDSNP [R23N], the protein stability index stood at 5.22.

Take FCADNPSELPPPMERTGGIGDSDP [R23D]: the protein stability index turned out to be 5.18.

On to FCADNPSELPPPMERTGGIGDSKP [R23K], for which the protein stability index was 4.94.

Take FCADNPSELPPPMERTGGIGDSHP [R23H]: the protein stability index was found to be 5.02.

Take FCADNPSELPPPMERTGGIGDSGP [R23G]: the protein stability index is 4.72.

For the variant FCADNPSELPPPMERTGGIGDSCP [R23C], the protein stability index came out at 4.59.

On to FCADNPSELPPPMERTGGTGDSRP [I19T], for which the protein stability index stood at 4.31.

Turning to FCADNPSELPPPMERTGGQGDSRP [I19Q], the protein stability index was determined as 4.65.

On to FCADNPSELPPPMERTGGHGDSRP [I19H], for which the protein stability index amounted to 5.16.

Take FCADNPSELPPPMERTGGSGDSRP [I19S]: the protein stability index turned out to be 5.22.

Regarding FCADNPSELPPPMERTGGDGDSRP [I19D], the protein stability index is 4.94.

As for FCADNPSELPPPMERTGGCGDSRP [I19C], the protein stability index worked out at 4.94.

Regarding FCADNPSELPPPMERTGGEGDSRP [I19E], the protein stability index was determined as 5.77.

For the variant FCADNPSELPPPMERTGGKGDSRP [I19K], the protein stability index came out at 5.59.

With FCADNPSELPPPMERTGGMGDSRP [I19M], the protein stability index is 4.8.

With FCADNPSELPPPMERTGGNGDSRP [I19N], the protein stability index stood at 4.82.

Regarding FCADNPSELPPPMERTGGWGDSRP [I19W], the protein stability index was determined as 3.51.

Regarding FCADNPSELPPPMERTGGAGDSRP [I19A], the protein stability index turned out to be 5.33.

With FCADNPSELPPPMERTGGVGDSRP [I19V], the protein stability index was determined as 5.09.

Turning to FCADNPSELPPPMERTGGFGDSRP [I19F], the protein stability index stood at 4.37.

In the case of FCADNPSELPPPMERTGGYGDSRP [I19Y], the protein stability index stood at 4.35.

For the variant FCADNPSELPPPMERTGGRGDSRP [I19R], the protein stability index is 4.74.

As for FCADNPSELPPPMEPTGGIGDSRP [R15P], the protein stability index is 4.99.

FCADNPSELPPPMEITGGIGDSRP [R15I]: the protein stability index was found to be 4.56.

In the case of FCADNPSELPPPMEATGGIGDSRP [R15A], the protein stability index was determined as 5.48.

Take FCADNPSELPPPMEHTGGIGDSRP [R15H]: the protein stability index came to 4.97.

With FCADNPSELPPPMEQTGGIGDSRP [R15Q], the protein stability index was determined as 4.37.

As to FCADNPSELPPPMEETGGIGDSRP [R15E], the protein stability index was found to be 5.37.

In the case of FCADNPSELPPPMEVTGGIGDSRP [R15V], the protein stability index is 4.5.

With FCADNPSELPPPMEGTGGIGDSRP [R15G], the protein stability index is 4.56.

For the variant FCADNPSELPPPMELTGGIGDSRP [R15L], the protein stability index stood at 4.51.

Take FCADNPSELPPPMEWTGGIGDSRP [R15W]: the protein stability index came to 3.77.

With FCADNPSELPPPMEYTGGIGDSRP [R15Y], the protein stability index was determined as 4.39.

Regarding FCADNPSELPPPMEKTGGIGDSRP [R15K], the protein stability index is 4.45.

For the variant FCADNPSELPPPMENTGGIGDSRP [R15N], the protein stability index was determined as 4.79.

Take FCADNPSELPPPMESTGGIGDSRP [R15S]: the protein stability index worked out at 4.82.

As for FCADNPSELPPPMEMTGGIGDSRP [R15M], the protein stability index came out at 4.25.

Consider FCADNPSELPPPMETTGGIGDSRP [R15T], for which the protein stability index worked out at 4.55.

FCADNPSELPPPMEFTGGIGDSRP [R15F]: the protein stability index turned out to be 4.1.

With FCADNPSELPPPMEDTGGIGDSRP [R15D], the protein stability index worked out at 4.76.

Turning to FCADNPSELPPPMECTGGIGDSRP [R15C], the protein stability index turned out to be 4.69.

Regarding FCADNPSELPPPLERTGGIGDSRP [M13L], the protein stability index was found to be 4.98.

For FCADNPSELPPPWERTGGIGDSRP [M13W], the protein stability index stood at 2.97.

For FCADNPSELPPPNERTGGIGDSRP [M13N], the protein stability index amounted to 4.77.

On to FCADNPSELPPPGERTGGIGDSRP [M13G], for which the protein stability index worked out at 4.67.

Consider FCADNPSELPPPSERTGGIGDSRP [M13S], for which the protein stability index was determined as 4.25.

As for FCADNPSELPPPHERTGGIGDSRP [M13H], the protein stability index came out at 4.77.

Regarding FCADNPSELPPPYERTGGIGDSRP [M13Y], the protein stability index amounted to 4.07.

As to FCADNPSELPPPVERTGGIGDSRP [M13V], the protein stability index stood at 4.89.

Consider FCADNPSELPPPIERTGGIGDSRP [M13I], for which the protein stability index is 4.27.

In the case of FCADNPSELPPPTERTGGIGDSRP [M13T], the protein stability index was 4.57.

For FCADNPSELPPPRERTGGIGDSRP [M13R], the protein stability index was determined as 4.2.

Consider FCADNPSELPPPKERTGGIGDSRP [M13K], for which the protein stability index came to 5.04.

As to FCADNPSELPPPQERTGGIGDSRP [M13Q], the protein stability index was determined as 5.

With FCADNPSELPPPMERTGGIGDHRP [S22H], the protein stability index worked out at 4.34.

Consider FCADNPSELPPPMERTGGIGDYRP [S22Y], for which the protein stability index was 4.23.

Take FCADNPSELPPPMERTGGIGDIRP [S22I]: the protein stability index stood at 4.

On to FCADNPSELPPPMERTGGIGDKRP [S22K], for which the protein stability index stood at 4.77.

Consider FCADNPSELPPPMERTGGIGDPRP [S22P], for which the protein stability index was 4.63.

Regarding FCADNPSELPPPMERTGGIGDERP [S22E], the protein stability index stood at 5.23.

For FCADNPSELPPPMERTGGIGDFRP [S22F], the protein stability index came to 3.28.

As for FCADNPSELPPPMERTGGIGDMRP [S22M], the protein stability index turned out to be 4.09.

Consider FCADNPSELPPPMERTGGIGDQRP [S22Q], for which the protein stability index is 5.11.

As to FCADNPSELPPPMERTGGIGDTRP [S22T], the protein stability index amounted to 4.7.

For FCADNPSELPPPMERTGGIGDARP [S22A], the protein stability index came to 4.61.

For the variant FCADNPSELPPPMERTGGIGDGRP [S22G], the protein stability index is 4.

In the case of FCADNPSELPPPMERTGGIGDDRP [S22D], the protein stability index came to 4.88.

Turning to FCADNPSELPPPMERTGGIGDLRP [S22L], the protein stability index came to 4.4.

FCADNPSELPPPMERTGGIGDWRP [S22W]: the protein stability index was 3.97.

Take FCADNPSELPPPMERTGGIGDVRP [S22V]: the protein stability index was determined as 4.15.

With FCADNPSELPPPMERTGGIGDNRP [S22N], the protein stability index stood at 5.01.

In the case of FCADNPSELPPPMERTGGIGDCRP [S22C], the protein stability index turned out to be 3.55.

As to FCADNPSELPPPMERTGGIGDRRP [S22R], the protein stability index worked out at 4.29.

With FCADNPSELPPPMERTDGIGDSRP [G17D], the protein stability index was found to be 4.61.

For FCADNPSELPPPMERTHGIGDSRP [G17H], the protein stability index worked out at 4.69.

As for FCADNPSELPPPMERTLGIGDSRP [G17L], the protein stability index amounted to 4.12.

FCADNPSELPPPMERTPGIGDSRP [G17P]: the protein stability index was 4.85.

On to FCADNPSELPPPMERTMGIGDSRP [G17M], for which the protein stability index is 4.48.

As for FCADNPSELPPPMERTTGIGDSRP [G17T], the protein stability index is 4.48.

For FCADNPSELPPPMERTVGIGDSRP [G17V], the protein stability index came to 4.12.

FCADNPSELPPPMERTEGIGDSRP [G17E]: the protein stability index turned out to be 4.54.

Consider FCADNPSELPPPMERTFGIGDSRP [G17F], for which the protein stability index is 3.79.

In the case of FCADNPSELPPPMERTRGIGDSRP [G17R], the protein stability index stood at 4.62.

Consider FCADNPSELPPPMERTNGIGDSRP [G17N], for which the protein stability index amounted to 4.74.

For the variant FCADNPSELPPPMERTAGIGDSRP [G17A], the protein stability index stood at 4.51.

Take FCADNPSELPPPMERTQGIGDSRP [G17Q]: the protein stability index amounted to 4.73.

With FCADNPSELPPPMERTKGIGDSRP [G17K], the protein stability index is 4.89.

As to FCADNPSELPPPMERTYGIGDSRP [G17Y], the protein stability index is 3.91.
